Reference: patent US20230295310A1 (ABCELLERA BIOLOGICS, published 2023)

Legend:
[1] = molecular target: T1, cynomolgus monkey CD3 expressed on primary T cells (cynomolgus monkey, UniProt Q95LI5 22-198; Q95LI8 22-171; Q95LI7 23-181); assay: flow cytometry, 25 nM, cyno primary T cells
T1 construct: whole, on cells; CD3 complex on purified cynomolgus monkey T cells; also called cyno CD3
Method in brief: (§1)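 Antibodies at 25 nM in PBS + 2% FBS were incubated with CD3-expressing cells for 30 minutes at 4° C and analysed by flow cytometry. Median fluorescence intensity was normalized to isotype control to give fold over isotype (FOI); FOI ≥10 counted as binding.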

[2] = molecular target: T2, human CD3 expressed on cells (human, UniProt P07766 23-207; P04234 22-171; P09693 23-182); assay: flow cytometry, 25 nM, Jurkat cells (human primary T cells in c4 also <10)
T2 construct: whole, on cells; CD3 complex on Jurkat cells and on human primary T cells
T2 sequence (P07766 23-207, chain 1 of 3): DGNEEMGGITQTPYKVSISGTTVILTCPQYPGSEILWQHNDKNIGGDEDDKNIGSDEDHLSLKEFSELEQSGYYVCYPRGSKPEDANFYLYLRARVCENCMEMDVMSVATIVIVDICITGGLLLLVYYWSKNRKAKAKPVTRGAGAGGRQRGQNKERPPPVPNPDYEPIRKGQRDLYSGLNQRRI
T2 sequence (P04234 22-171, chain 2 of 3): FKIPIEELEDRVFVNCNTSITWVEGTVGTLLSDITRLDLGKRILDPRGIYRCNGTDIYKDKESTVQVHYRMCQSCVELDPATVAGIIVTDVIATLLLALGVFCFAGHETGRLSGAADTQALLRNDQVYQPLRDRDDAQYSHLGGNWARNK
T2 sequence (P09693 23-182, chain 3 of 3): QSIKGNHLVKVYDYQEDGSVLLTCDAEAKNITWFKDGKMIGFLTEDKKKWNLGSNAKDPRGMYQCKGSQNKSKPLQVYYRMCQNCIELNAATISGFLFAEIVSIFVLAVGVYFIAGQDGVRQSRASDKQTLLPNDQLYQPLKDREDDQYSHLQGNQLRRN
Procedure: Purified antibodies were confirmed to bind CD3 expressed on cells using the CytoFLEX S or LX flow cytometers (Beckman Coulter). Antibodies were diluted to 25 nM in FACS buffer (PBS+2% FBS) and were incubated with CD3-expressing cells for 30 minutes at 4° C. […] The median fluorescence intensity of the binding signal for each antibody was normalized to the isotype control to obtain a fold over isotype value. An antibody with a fold over isotype (FOI) of ≥10 was considered to be positive for binding.

[3] = molecular target: T2, human CD3 expressed on cells; assay: flow cytometry, 25 nM
Method in brief: as §1

T1 sequence (Q95LI5 22-198, chain 1 of 3): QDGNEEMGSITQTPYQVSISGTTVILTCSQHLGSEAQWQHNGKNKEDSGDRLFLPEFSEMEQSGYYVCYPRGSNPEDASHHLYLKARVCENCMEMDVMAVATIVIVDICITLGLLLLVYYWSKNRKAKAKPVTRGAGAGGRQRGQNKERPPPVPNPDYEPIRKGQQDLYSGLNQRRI
T1 sequence (Q95LI8 22-171, chain 2 of 3): as the sequence (P04234 22-171, chain 2 of 3) above, with I5V, N15K, I20V, S32T, D33N, I34N, T64A, S74N, V83L, H141R counted along it
T1 sequence (Q95LI7 23-181, chain 3 of 3): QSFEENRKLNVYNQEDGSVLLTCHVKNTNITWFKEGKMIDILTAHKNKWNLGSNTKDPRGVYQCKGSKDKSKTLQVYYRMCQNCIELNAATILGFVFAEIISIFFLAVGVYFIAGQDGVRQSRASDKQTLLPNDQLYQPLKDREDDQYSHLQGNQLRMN

binding result [1]	binding result [2]	Human primary T Cell Binding (FOI) [3] [FOI]	Binder
no binding (tested: FOI >=10 = positive)	no binding (tested: FOI >=10 = positive)	0.885	mAb 88 (antibody, V domains shown) VH: QVHLVQSGAEVKKPGASVKVSCKASGHTFTGYYVHWARQAPGQGLEWMGWIYSNSGRTSYSQKFQGRVAMTRDTSINTIYMDLSRLRSDDTAVYYCARLEQLVFDFWGQGTLVTVSS VL: not shown
no binding (tested: FOI >=10 = positive)	no binding (tested: FOI >=10 = positive)	0.805	mAb 84 (antibody, V domains shown) VH: QVHLVQSGAEVKKPGASVKVSCKASGHSFTGYYVHWARQAPGQGLEWMGWIYSNSGRTSYAQKFQGRVTMTRDTSISTTYMELSRLRSDDTAVYYCARLDQLVFDYWGQGTLVTVSS VL: not shown
no binding (tested: FOI >=10 = positive)	no binding (tested: FOI >=10 = positive)	0.954	mAb 82 (antibody, V domains shown) VH: QVHLVQSGAEVKKPGASVKVSCKASGHTFTGYYVHWARQAPGQGLEWMGWIYSNSGRTSYSQKFQGRVAMTRDTSISTIYMDLSRLRSDDTAVYYCARLEQLVFDFWGQGTLVTVSS VL: not shown
no binding (tested: FOI >=10 = positive)	no binding (tested: FOI >=10 = positive)	0.821	mAb 135 (antibody, V domains shown) VH: EVQLVESGGGLVKTGGSLRLSCVASGFSFKKAWMNWVRQAPGKGLEWVGRIKRNSDGGTTDYAAPVKGRFTLSRDDSKNTLYLQMNSLKTEDTAVYYCTTLDSSSWYVGYYYMDVWGKGTTVTVSS VL: not shown
no binding (tested: FOI >=10 = positive)	no binding (tested: FOI >=10 = positive)	0.842	mAb 105 (antibody, V domains shown) VH: QVQLQESGPGLVKPSATLSLTCTVSGGSISTYYWSWIRQSPGKGLEWIGYISYSVNTNPSLKSRVTISVDKSKNQLSLNLRSATGADTAVYYCARGGLYGGNAGRFDLWGQGTLVTVSS VL: EIVLTQSPGTLSLSPGERATLSCRASQSVINNYVAWYQQKPGQAPSLIITGVSRRATGIPDRFIGSGSGTDFILIISRLEPEDFAVYCCQQYGNSPWTFGQGTRVEIK
no binding (tested: FOI >=10 = positive)	no binding (tested: FOI >=10 = positive)	0.772	mAb 108 (antibody, V domains shown) VH: QVQLVESGGGVVQPGRSLRLSCAASGFTFSSYGMHWVRQAPGKGLEWVAVIWYDGSNKYYEDSVKGRFTISRDNSKNTLHLQMNSLRVEDTAVYYCARGLEFDYWGQGTLVTVSS VL: DIVMTQTPLSSPVTLGQPASISCRSSQSLVHSDGITYLNWLQQRPGQPPRLLIYKISNRFSGVPDRFSGSGSGTDFTLKISRVEAEDVGVYYCMQATQFPWTFGQGTKVEIK
no binding (tested: FOI >=10 = positive)	no binding (tested: FOI >=10 = positive)	0.796	mAb 138 (antibody, V domains shown) VH: QVLLVQSGPEVKKPGASVKVSCKASGYTFTDYYLHWVRQAPGQGLDWMGWINPKSGGTRNAQKFQGRVTMTRDTSISTAYMDLTRLRSDDTAVYYCARVGGELLFDYWGQGTLVTVSS VL: DIVMTQSPLSLSVTPGEPASISCRSSQSLLHSDGYNYLDWFLQKPGQSPHLLIFLGSNRASGVPDRFSGSGSGTDFTLKISRVEAEDVGIYYCMQALQTPLTFGGGTKVEIK
no binding (tested: FOI >=10 = positive)	no binding (tested: FOI >=10 = positive)	0.746	mAb 91 (antibody, V domains shown) VH: QVQLVQSGAEVKKPGASVKVSCKASGYTFTGYYIHWVRQAPGQGLEWMGWINPKSGNTVYAQRFQGRVTMTRDTSISTAYMDLSRLKSDDTAVYYCARLEQLVFDYWGQGALVTVSS VL: not shown
no binding (tested: FOI >=10 = positive)	no binding (tested: FOI >=10 = positive)	0.835	mAb 124 (antibody, V domains shown) VH: EVQVVESGGDLVQPGGSLRLSCAASGFTFSTYAMTWVRQAPGKGLEWISTISGSGHNTYYADSVKGRFTISRGNSKNTLFLQMNSLRAEDTAVYYCAKENCGGDCLYYMDVWGKGTTVTVSS VL: DIQMTQSPSSLSASVGDRVTITCRASQSISNYLNWYQQKSGKAPKLLIYFASSLQSGVPSRFGGSGAGTDFTLTISSLQPEDFATYSCQQSYSTPLTFGGGTKVEIK
no binding (tested: FOI >=10 = positive)	no binding (tested: FOI >=10 = positive)	0.526	mAb 103 (antibody, V domains shown) VH: QVQLVQSGAEVMKPGASVKVSCKASGYTFTDFYIHWVRQAPGQGLEWMGWINPKSGNTRFAQKFQGRVTMTRDTSIATSYMELSRLRSDDTAVFYCARMGDLLALDYWGQGTLVTVSS VL: EIVLTQSPATLSLSPGERATLSCRASQSVSSYLAWYQQKPGQAPRLLIYDASNRATGIPARFSGSGSGTDFTLTISSLEPEDFAVYYCQQRSNWYTFGQGTKLEIK
no binding (tested: FOI >=10 = positive)	no binding (tested: FOI >=10 = positive)	0.778	mAb 104 (antibody, V domains shown) VH: QVQLVQSGAEVKKPGASVKVSCKASGYTFTDFYIHWVRQAPGQGLEWMGWINPKSGNTRFAQRFQGRVTMTRDTSITTSYMELSRLRSDDTAVFYCARMGDLLALDYWGQGTLVTVSS VL: not shown
no binding (tested: FOI >=10 = positive)	no binding (tested: FOI >=10 = positive)	0.743	mAb 107 (antibody, V domains shown) VH: QVQLQESGPGLVKPSETLSLTCTVSGGSISSYCWSWIRQPPGKGLEWIGYIYNIGSTNFNPSLKSRVTISVDTSKNQFSLKLNSVTAADTAVYYCARGGLYSGNGGRFDPWGRGTLVTVSS VL: EIVLTQSPGTLSLSPGQTATLSCRASQGVRSNYLAWYQQKPGQAPRLLIYGASSRATGIPVRFSGSGSGTGFTLTMSRLEPEDFAVYYCQQYGSSPWTFGQGSKVEIK
no binding (tested: FOI >=10 = positive)	no binding (tested: FOI >=10 = positive)	0.715	mAb 87 (antibody, V domains shown) VH: QVQLVQSGAEMKKPGASVKVSCKASGYTFTDYYLHWVRRAPGHGLEWMGWIYPKSGRRNYAQHFQGRVTMTRDTSINTAYMELSSLRSDDSAVYFCVRLEQLVFDYWGQGTLVTVSS VL: not shown
no binding (tested: FOI >=10 = positive)	no binding (tested: FOI >=10 = positive)	0.905	mAb 80 (antibody, V domains shown) VH: QVQLVQSGAEVKKPGASVKVSCKASGYTFAGYYLHWVRQAPGQGLEWMGWINPNSGRTESAQKFQGRVTLTRDTSITTAYMALSRLRSDDTAIYYCTRLEQLVFDYWGQGTLVTVSS VL: EIVLTQSPDFQSVTPKEKVTITCRASQSIGSSLHWYQQKPDQSPKLLIKYASQSFSGVPSRFSGSGSGTDFTLTINSLEAEDAATYYCHQSSSLPTFGQGTKVEIK
no binding (tested: FOI >=10 = positive)	no binding (tested: FOI >=10 = positive)	0.594	mAb 89 (antibody, V domains shown) VH: QVQLVQSGAEVKKPGASVKVSCKASGYTFAGYYLHWVRQAPGQGLEWMGWINPNSGRTESAQKFQGRVTLTRDTSITTAYMALSRLRSDDTAIYYCTRLEQLVFDYWGQGTLVTVSS VL: DIQMTQSPSSLSASVGDRVTITCRASQGISNYLAWFQQKPGKAPKSLIYAASSLQSGVPSKFSGSGSGTDFTLTISSLQPEDFATYYCQQYNSYPITFGQGTRLEIK
no binding (tested: FOI >=10 = positive)	no binding (tested: FOI >=10 = positive)	1.58	mAb 147 (antibody, V domains shown) VH: QVQLVQSGAEVKKPGASVKVSCKASGYTFTAYHTHWVRQAPGQGLEWMGWIYPKSGRTTYTQKFQGRVTMTRDTSISTVYMELSRLKSDDTAVYYCARVGALLFDYWGQGTLVTVSS VL: not shown
no binding (tested: FOI >=10 = positive)	no binding (tested: FOI >=10 = positive)	0.678	mAb 139 (antibody, V domains shown) VH: QVQLVESGGGVVQPGRSLRLSCAASGFTFSSYAMHWVRQAPGKGLEWVAVIWFDGTNKYYTDSVRGRFTISRDNSKNTLYLQMNSLRAEDTAVYYCATERGITETTRGFDYWGQGTLVTVSS VL: DIQMTQSPSSLSASVGDRVTITCRTSQGIGNDLDWYQQNPGKAPKRLIYATSNLQSGVPSRFSGSGSGTEFTLTISGLQPEDFTTYYCLRHNSYPYTFGQGTKLEIT
